Test system: Escherichia coli TOP10
Test: shrunken log2 fold change of peptide-encoding DNA abundance (4.5 h post-induction vs induction); higher = less antimicrobial activity (less host growth inhibition)
Details: time post-induction: 4.5 h; library: site-saturation at positions 5, 18, 19, 20
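Further: peptides expressed intracellularly from a pBAD plasmid library in pooled LB shake-flask culture, induced with 0.3% L-arabinose, DNA abundance read by NGS, three biological replicates, DESeq2 with apeglm shrinkage.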

Sequence	shrunken log2 fold change
RRIRERPPRLPRPRPRPGSWPRP	2.45
RRIRKRPPRLPRPRPRPDQQPRP	0.0777
RRIRMRPPRLPRPRPRPQPWPRP	0.561
RRIRIRPPRLPRPRPRPMAEPRP	-0.0152
RRIRDRPPRLPRPRPRPCELPRP	0.0111
RRIRGRPPRLPRPRPRPVSSPRP	0.0973
RRIRTRPPRLPRPRPRPYRNPRP	-0.21
RRIRARPPRLPRPRPRPEPQPRP	0.862
RRIRTRPPRLPRPRPRPFCCPRP	-0.309
RRIRIRPPRLPRPRPRPMNEPRP	0.0707
RRIRKRPPRLPRPRPRPCCVPRP	0.265
RRIRMRPPRLPRPRPRPNQVPRP	-0.217
RRIRFRPPRLPRPRPRPTQFPRP	0.153
RRIRERPPRLPRPRPRPIIFPRP	-0.352
RRIRNRPPRLPRPRPRPQLEPRP	0.307
RRIRQRPPRLPRPRPRPFVDPRP	-0.00879
RRIRGRPPRLPRPRPRPIPEPRP	0.462
RRIRCRPPRLPRPRPRPFGEPRP	-0.282
RRIRFRPPRLPRPRPRPTELPRP	-0.161
RRIRYRPPRLPRPRPRPSFQPRP	-1.13
RRIRVRPPRLPRPRPRPEPQPRP	0.363
RRIRARPPRLPRPRPRPDELPRP	0.63
RRIRDRPPRLPRPRPRPNENPRP	-0.177
RRIRQRPPRLPRPRPRPIVAPRP	-0.00611
RRIRARPPRLPRPRPRPSRYPRP	0.0768

Sequence	shrunken log2 fold change
RRIRWRPPRLPRPRPRPSLYPRP	-0.402
RRIRFRPPRLPRPRPRPILGPRP	0.0151
RRIRLRPPRLPRPRPRPHGHPRP	-0.126
RRIRMRPPRLPRPRPRPIFQPRP	-0.115
RRIRKRPPRLPRPRPRPPTIPRP	0.119
RRIRGRPPRLPRPRPRPTMNPRP	0.709
RRIRMRPPRLPRPRPRPRYGPRP	0.0305
RRIRLRPPRLPRPRPRPYENPRP	-0.0259
RRIRPRPPRLPRPRPRPYLEPRP	-0.634
RRIRLRPPRLPRPRPRPIFDPRP	-0.0489
RRIRTRPPRLPRPRPRPSKTPRP	0.0543
RRIRCRPPRLPRPRPRPETEPRP	-0.0921
RRIRFRPPRLPRPRPRPIRTPRP	-0.0861
RRIRSRPPRLPRPRPRPKGFPRP	0.158
RRIRLRPPRLPRPRPRPPPCPRP	0.846
RRIRCRPPRLPRPRPRPKRNPRP	0.34
RRIRMRPPRLPRPRPRPRHAPRP	0.698
RRIRNRPPRLPRPRPRPHPPPRP	0.304
RRIRFRPPRLPRPRPRPKPGPRP	0.446
RRIRCRPPRLPRPRPRPQQMPRP	0.013
RRIRQRPPRLPRPRPRPDSRPRP	-0.0119
RRIRLRPPRLPRPRPRPGLWPRP	0.863
RRIRQRPPRLPRPRPRPLRGPRP	0.664
RRIRLRPPRLPRPRPRPDNHPRP	-0.519
RRIRLRPPRLPRPRPRPYTAPRP	-0.863

Sequence	shrunken log2 fold change
RRIRWRPPRLPRPRPRPEFTPRP	0.362
RRIRYRPPRLPRPRPRPTHGPRP	-0.1
RRIRERPPRLPRPRPRPTRKPRP	0.0197
RRIRVRPPRLPRPRPRPWQCPRP	-0.00264
RRIRMRPPRLPRPRPRPKQHPRP	0.675
RRIRARPPRLPRPRPRPLIQPRP	0.0545
RRIRVRPPRLPRPRPRPDTGPRP	-0.00804
RRIRHRPPRLPRPRPRPLKKPRP	-0.157
RRIRFRPPRLPRPRPRPYLSPRP	-1.86
RRIRDRPPRLPRPRPRPDFYPRP	0.00164
RRIRFRPPRLPRPRPRPYFLPRP	-0.628
RRIRSRPPRLPRPRPRPVDMPRP	0.0294
RRIRGRPPRLPRPRPRPWAKPRP	-0.0167
RRIRRRPPRLPRPRPRPRMWPRP	0.431
RRIRPRPPRLPRPRPRPLPTPRP	0.42
RRIRRRPPRLPRPRPRPVCRPRP	0.562
RRIRNRPPRLPRPRPRPAFAPRP	0.158
RRIRHRPPRLPRPRPRPIYGPRP	-0.0133
RRIRERPPRLPRPRPRPDWTPRP	0.0763
RRIRRRPPRLPRPRPRPDTVPRP	0.0777
RRIRQRPPRLPRPRPRPKHKPRP	-0.0629
RRIRGRPPRLPRPRPRPPHTPRP	0.985
RRIRLRPPRLPRPRPRPQITPRP	-0.294
RRIRHRPPRLPRPRPRPVWGPRP	0.479
RRIRIRPPRLPRPRPRPLTTPRP	-0.148

Sequence	shrunken log2 fold change
RRIRPRPPRLPRPRPRPIIEPRP	-0.138
RRIRLRPPRLPRPRPRPYEWPRP	-0.00151
RRIRQRPPRLPRPRPRPSCIPRP	-0.238
RRIRYRPPRLPRPRPRPHKWPRP	-0.581
RRIRCRPPRLPRPRPRPNYSPRP	-0.522
RRIRCRPPRLPRPRPRPFGNPRP	-0.365
RRIRVRPPRLPRPRPRPRKLPRP	-0.0444
RRIRERPPRLPRPRPRPRDGPRP	0.237
RRIRMRPPRLPRPRPRPTDRPRP	0.894
RRIRIRPPRLPRPRPRPYSTPRP	-1.85
RRIRNRPPRLPRPRPRPFEHPRP	0.0659
RRIRQRPPRLPRPRPRPPNGPRP	-0.00787
RRIRQRPPRLPRPRPRPGWIPRP	0.179
RRIRKRPPRLPRPRPRPGEVPRP	0.268
RRIRLRPPRLPRPRPRPFHTPRP	-0.00564
RRIRMRPPRLPRPRPRPSPHPRP	0.18
RRIRGRPPRLPRPRPRPVQVPRP	0.215
RRIRKRPPRLPRPRPRPHRKPRP	-0.0475
RRIRQRPPRLPRPRPRPSERPRP	-0.143
RRIRCRPPRLPRPRPRPIVQPRP	0.0655
RRIRTRPPRLPRPRPRPQAQPRP	0.017
RRIRNRPPRLPRPRPRPWIAPRP	-0.135
RRIRCRPPRLPRPRPRPSYEPRP	-0.374
RRIRNRPPRLPRPRPRPCPIPRP	-0.223
RRIRKRPPRLPRPRPRPCIEPRP	-0.00715

Sequence	shrunken log2 fold change
RRIRGRPPRLPRPRPRPWFEPRP	-0.111
RRIRGRPPRLPRPRPRPRTTPRP	1.06
RRIRGRPPRLPRPRPRPQLRPRP	0.139
RRIRYRPPRLPRPRPRPLFSPRP	-0.673
RRIRQRPPRLPRPRPRPEHYPRP	-0.153
RRIRFRPPRLPRPRPRPMFRPRP	0.0591
RRIRMRPPRLPRPRPRPHNCPRP	-0.0504
RRIRERPPRLPRPRPRPMCHPRP	0.0346
RRIRWRPPRLPRPRPRPGMWPRP	0.729
RRIRRRPPRLPRPRPRPHGRPRP	0.0549
RRIRSRPPRLPRPRPRPFVSPRP	-0.481
RRIRCRPPRLPRPRPRPHIKPRP	-0.788
RRIRVRPPRLPRPRPRPIHKPRP	-0.203
RRIRDRPPRLPRPRPRPVWYPRP	-0.134
RRIRCRPPRLPRPRPRPKEKPRP	0.00563
RRIRYRPPRLPRPRPRPTEDPRP	-0.166
RRIRWRPPRLPRPRPRPAAFPRP	0.334
RRIRRRPPRLPRPRPRPIESPRP	0.0332
RRIRGRPPRLPRPRPRPCFNPRP	0.436
RRIRQRPPRLPRPRPRPQGVPRP	0.0036
RRIRNRPPRLPRPRPRPSVLPRP	0.0978
RRIRQRPPRLPRPRPRPHICPRP	-0.049
RRIRWRPPRLPRPRPRPDPYPRP	-0.198
RRIRMRPPRLPRPRPRPKRGPRP	-0.0058
RRIRLRPPRLPRPRPRPAEPPRP	0.188

Sequence	shrunken log2 fold change
RRIRNRPPRLPRPRPRPPRGPRP	1.3
RRIRARPPRLPRPRPRPGENPRP	0.687
RRIRSRPPRLPRPRPRPDQVPRP	-0.0236
RRIRWRPPRLPRPRPRPDKVPRP	0.0749
RRIRQRPPRLPRPRPRPIKPPRP	0.0492
RRIRQRPPRLPRPRPRPFFPPRP	-0.0441
RRIRSRPPRLPRPRPRPFVHPRP	-0.291
RRIRYRPPRLPRPRPRPFCSPRP	-0.425
RRIRCRPPRLPRPRPRPMQQPRP	-0.036
RRIRTRPPRLPRPRPRPIYFPRP	-0.468
RRIRLRPPRLPRPRPRPDEDPRP	0.0258
RRIRLRPPRLPRPRPRPTLQPRP	0.0553
RRIRNRPPRLPRPRPRPELVPRP	0.391
RRIRQRPPRLPRPRPRPILGPRP	0.0906
RRIRRRPPRLPRPRPRPDWCPRP	0.201
RRIRDRPPRLPRPRPRPPNAPRP	0.617
RRIRLRPPRLPRPRPRPKESPRP	0.0595
RRIRQRPPRLPRPRPRPATKPRP	0.154
RRIRKRPPRLPRPRPRPCYDPRP	-0.0387
RRIRMRPPRLPRPRPRPSNSPRP	-0.192
RRIRRRPPRLPRPRPRPRKMPRP	0.163
RRIRMRPPRLPRPRPRPQNPPRP	0.26
RRIRPRPPRLPRPRPRPFSCPRP	-0.106
RRIRIRPPRLPRPRPRPWRHPRP	-0.083
RRIRMRPPRLPRPRPRPEVEPRP	-0.0272
